Results published in patent publication US7838231 (REGENTS OF THE UNIVERSITY OF MICHIGAN, dated 2010).

Key:
[1] = target: T1, NPHP3, human full length, yeast two-hybrid prey (human, UniProt Q7Z494 1-1330); assay: direct yeast two-hybrid assay
T1 sequence (looked up): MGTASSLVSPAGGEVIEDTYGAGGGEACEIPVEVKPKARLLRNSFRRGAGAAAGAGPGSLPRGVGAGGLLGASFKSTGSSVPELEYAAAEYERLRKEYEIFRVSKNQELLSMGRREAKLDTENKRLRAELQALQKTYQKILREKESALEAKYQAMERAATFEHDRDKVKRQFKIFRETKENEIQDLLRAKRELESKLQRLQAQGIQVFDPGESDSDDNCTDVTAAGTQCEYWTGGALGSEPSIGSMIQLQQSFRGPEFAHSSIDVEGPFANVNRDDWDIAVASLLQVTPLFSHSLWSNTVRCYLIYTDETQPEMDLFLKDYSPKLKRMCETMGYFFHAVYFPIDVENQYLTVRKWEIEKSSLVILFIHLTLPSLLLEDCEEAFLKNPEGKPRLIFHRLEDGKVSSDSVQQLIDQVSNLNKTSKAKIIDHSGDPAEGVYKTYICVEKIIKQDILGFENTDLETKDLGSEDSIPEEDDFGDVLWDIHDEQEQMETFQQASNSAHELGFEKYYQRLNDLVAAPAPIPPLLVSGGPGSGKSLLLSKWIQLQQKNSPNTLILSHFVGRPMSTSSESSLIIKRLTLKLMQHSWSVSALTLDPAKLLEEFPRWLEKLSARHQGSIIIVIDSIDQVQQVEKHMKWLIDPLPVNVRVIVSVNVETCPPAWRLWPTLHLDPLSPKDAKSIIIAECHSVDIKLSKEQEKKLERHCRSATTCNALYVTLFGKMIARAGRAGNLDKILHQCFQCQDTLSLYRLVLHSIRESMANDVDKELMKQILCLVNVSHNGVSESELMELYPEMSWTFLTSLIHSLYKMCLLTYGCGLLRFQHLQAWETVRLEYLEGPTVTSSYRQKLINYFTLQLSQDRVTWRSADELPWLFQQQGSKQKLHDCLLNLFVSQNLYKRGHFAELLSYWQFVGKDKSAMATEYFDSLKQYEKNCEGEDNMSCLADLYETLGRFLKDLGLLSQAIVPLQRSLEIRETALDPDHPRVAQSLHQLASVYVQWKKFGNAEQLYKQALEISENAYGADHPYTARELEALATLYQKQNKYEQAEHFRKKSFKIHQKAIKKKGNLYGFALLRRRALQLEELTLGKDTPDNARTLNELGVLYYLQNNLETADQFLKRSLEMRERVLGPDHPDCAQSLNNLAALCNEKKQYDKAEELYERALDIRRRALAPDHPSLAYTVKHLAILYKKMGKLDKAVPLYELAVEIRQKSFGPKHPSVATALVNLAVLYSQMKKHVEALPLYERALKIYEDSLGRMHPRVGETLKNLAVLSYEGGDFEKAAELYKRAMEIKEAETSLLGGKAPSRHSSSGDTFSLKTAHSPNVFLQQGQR

[2] = target: T2, BBS2, human full length, yeast two-hybrid prey (human, UniProt Q9BXC9 1-721); assay: direct yeast two-hybrid assay
T2 sequence (looked up): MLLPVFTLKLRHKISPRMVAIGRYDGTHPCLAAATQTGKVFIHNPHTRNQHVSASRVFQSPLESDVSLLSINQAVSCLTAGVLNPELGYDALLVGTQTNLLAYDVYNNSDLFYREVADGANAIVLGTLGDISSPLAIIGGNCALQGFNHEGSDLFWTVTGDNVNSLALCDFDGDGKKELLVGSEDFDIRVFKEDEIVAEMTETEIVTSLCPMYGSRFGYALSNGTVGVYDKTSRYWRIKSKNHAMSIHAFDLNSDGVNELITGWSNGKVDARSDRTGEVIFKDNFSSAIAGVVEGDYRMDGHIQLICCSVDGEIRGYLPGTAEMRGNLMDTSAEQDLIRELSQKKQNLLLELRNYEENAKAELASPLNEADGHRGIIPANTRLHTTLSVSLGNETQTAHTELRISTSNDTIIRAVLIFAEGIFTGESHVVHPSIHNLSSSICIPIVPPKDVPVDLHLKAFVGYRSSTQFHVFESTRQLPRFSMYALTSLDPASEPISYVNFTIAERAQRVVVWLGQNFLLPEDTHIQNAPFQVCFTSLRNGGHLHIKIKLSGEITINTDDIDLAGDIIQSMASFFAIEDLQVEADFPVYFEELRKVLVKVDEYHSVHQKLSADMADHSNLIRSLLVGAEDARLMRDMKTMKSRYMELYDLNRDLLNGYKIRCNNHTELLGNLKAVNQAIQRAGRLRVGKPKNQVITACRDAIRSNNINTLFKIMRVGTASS

[3] = target: calmodulin (CALM2), human full length, yeast two-hybrid fusion (human, UniProt P0DP24 1-149); assay: yeast two-hybrid screen of a human fetal brain expression library, NPHP5 as bait

- binding result [1]: no binding
- binding result [2]: no binding
- binding result [3]: binds
B1: full-length human nephrocystin-5 (NPHP5), yeast two-hybrid fusion (other, not shown: small tags and cut ends)
chain: MKPTGTDPRILSIAAEVAKSPEQNVPVILLKLKEIINITPLGSSELKKIKQDIYCYDLIQYCLLVLSQDYSRIQGGWTTISQLTQILSHCCVGLEPGEDAEEFYNELLPSAAENFLVLGRQLQTCFINAAKAEEKDELLHFFQIVTDSLFWLLGGHVELIQNVLQSDHFLHLLQADNVQIGSAVMMMLQNILQINSGDLLRIGRKALYSILDEVIFKLFSTPSPVIRSTATKLLLLMAESHQEILILLRQSTCYKGLRRLLSKQETGTEFSQELRQLVGLLSPMVYQEVEEQKLHQAACLIQAYWKGFQTRKRLKKLPSAVIALQRSFRSKRSKMLLEINRQKEEEDLKLQLQLQRQRAMRLSRELQLSMLEIVHPGQVEKHYREMEEKSALNIQKHWRGYRERKNFHQQRQSLIEYKAAVTLQRAALKFLAKCRKKKKLFAPWRGLQELTDARRVELKKRVDDYVRRHLGSPMSDVVSRELHAQAQERLQHYFMGRALEERAQQHREALIAQISTNVEQLMKAPSLKEAEGKEPELFLSRSRPVAAKAKQAHLTTLKHIQAPWWKKLGEESGDEIDVPKDELSIELENLFIGGTKPP
notes: Full-length NPHP5 cDNA (598 amino acid residues) fused to a GAL4 domain; also called KIAA0036
